B1: AptER-4 (ssRNA)
RNA: GGGAGAAUUCAACUGCCAUCUAGGCCACAGCCGGCGGUCGAACACCAGAGGGCGACUUUGGGUAGUCGAGUAUUAAGUACUACAAGCUUCUGGACUCGGU
B2: AptER-1 (clone B63) (ssRNA)
RNA: GGGAGAAUUCAACUGCCAUCUAGGCCCACAGUUCAGAGGCACCGCGAACAAAACGCAAGACAGAGUGCCGACAAGAGCACUACAAGCUUCUGGACUCGGU

Key:
hERα DNA-binding domain [1] = target: T1, hERα DNA-binding domain (Homo sapiens, UniProt P03372 P03372:180-268); test: DBD binding assay, method not specified; conditions: tags: N-terminal His6; E. coli BL21(DE3); label: 32P-CTP internal; predicted three-way junction with two long hairpins
T1 sequence (P03372 180-268, one chain of several): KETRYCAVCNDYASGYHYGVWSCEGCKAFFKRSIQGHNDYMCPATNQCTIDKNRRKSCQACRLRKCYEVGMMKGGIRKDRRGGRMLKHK

[2] = target: T2, Human estrogen receptor beta (hERβ) (Homo sapiens, UniProt Q92731 Q92731:1-530); test: filter; affinity for hERβ too low to be determined; conditions: tags: none stated; baculovirus/insect cells; EMD4 Biosciences 330657; label: 32P-CTP internal; predicted three-way junction with two long hairpins
T2 sequence (Q92731 whole entry, the tested form may be a part, one chain of several): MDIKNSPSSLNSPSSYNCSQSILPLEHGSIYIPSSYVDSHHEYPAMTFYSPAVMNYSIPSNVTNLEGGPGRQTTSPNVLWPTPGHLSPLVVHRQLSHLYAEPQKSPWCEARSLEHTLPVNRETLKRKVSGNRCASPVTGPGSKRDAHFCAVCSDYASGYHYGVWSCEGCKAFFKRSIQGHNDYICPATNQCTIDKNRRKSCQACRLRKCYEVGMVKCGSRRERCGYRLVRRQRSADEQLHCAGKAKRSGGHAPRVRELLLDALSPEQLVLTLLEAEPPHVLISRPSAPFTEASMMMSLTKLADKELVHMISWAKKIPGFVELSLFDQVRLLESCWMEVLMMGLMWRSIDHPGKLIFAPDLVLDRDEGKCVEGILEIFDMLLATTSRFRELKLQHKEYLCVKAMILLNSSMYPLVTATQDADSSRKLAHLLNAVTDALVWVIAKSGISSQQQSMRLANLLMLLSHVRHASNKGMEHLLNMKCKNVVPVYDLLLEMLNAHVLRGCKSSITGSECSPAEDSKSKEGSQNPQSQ

[3] = target: hERα ligand-binding domain (Homo sapiens, UniProt P03372 P03372:282-595); test: EMSA; 100 nM protein, 2.5 nM RNA; conditions: tags: GST fusion, baculovirus/insect cells, Invitrogen PV4543, label: 32P-CTP internal
Sequence of hERα ligand-binding domain (P03372 282-595, one chain of several): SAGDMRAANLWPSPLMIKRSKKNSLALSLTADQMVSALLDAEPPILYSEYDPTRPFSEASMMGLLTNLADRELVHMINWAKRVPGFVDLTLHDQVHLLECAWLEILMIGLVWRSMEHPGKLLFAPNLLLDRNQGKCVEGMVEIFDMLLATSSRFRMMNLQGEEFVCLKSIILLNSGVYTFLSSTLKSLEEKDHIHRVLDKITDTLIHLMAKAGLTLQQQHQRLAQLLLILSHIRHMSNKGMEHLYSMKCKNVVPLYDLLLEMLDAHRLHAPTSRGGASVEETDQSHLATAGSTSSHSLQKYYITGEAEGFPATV
Protocol: Human ERα was incubated with ligands (40 nM to 5 μM E2 or OHT) or vehicle control (EtOH) at 37° C. for 10 min before addition of RNA. Regardless of the absence or presence of the ligands, hERα formed a complex with AptER-1 in the same way. In FIG. 12B, the ligand competition assays showing that the interaction between AptER-4 and hERα was not intervened by ligand-binding. Human ERα was incubated with 1 μM E2 or vehicle control (EtOH) before addition of AptER-4. Regardless of the absence or presence of the ligands, hERα formed a complex with AptER-4 in the same way. […] Proteins were 100 nM. In the presence of hERα, both aptamers were shifted. No binding activity to GST/hERα-LBD was detected.
Whether the aptamers bind to LBD was examined in two ways. One approach was an EMSA to directly examine whether the aptamers bound to the GST/hERα-LBD construct. The recombinant human ERα-LBD purchased from Invitrogen was expressed as a GST-tagged fusion protein in baculovirus-infected insect cells. It contains amino acid 282 to 595 of hERα, with a calculated molecular weight of 62.80 kDa protein. According to the manufacturer's instruction, the concentration of functional receptor was determined by quantification of estrodial, [6, 7-³H9(N)] receptor complexes using a hydroxyapatite (HAP) assay. Binding reactions were set up with 2.5 nM radiolabeled aptamers and 100 nM protein. […]

[4] = target: T3, Human estrogen receptor alpha (hERα), full-length, unliganded (Homo sapiens, UniProt P03372 P03372:1-595); test: filter; same buffer, 37 C; Hill n>1; conditions: tags: none stated; baculovirus/insect cells; Invitrogen P2187 or EMD4 Biosciences 330655; label: 32P-CTP internal; predicted three-way junction with two long hairpins
T3 sequence (P03372 whole entry, one chain of several): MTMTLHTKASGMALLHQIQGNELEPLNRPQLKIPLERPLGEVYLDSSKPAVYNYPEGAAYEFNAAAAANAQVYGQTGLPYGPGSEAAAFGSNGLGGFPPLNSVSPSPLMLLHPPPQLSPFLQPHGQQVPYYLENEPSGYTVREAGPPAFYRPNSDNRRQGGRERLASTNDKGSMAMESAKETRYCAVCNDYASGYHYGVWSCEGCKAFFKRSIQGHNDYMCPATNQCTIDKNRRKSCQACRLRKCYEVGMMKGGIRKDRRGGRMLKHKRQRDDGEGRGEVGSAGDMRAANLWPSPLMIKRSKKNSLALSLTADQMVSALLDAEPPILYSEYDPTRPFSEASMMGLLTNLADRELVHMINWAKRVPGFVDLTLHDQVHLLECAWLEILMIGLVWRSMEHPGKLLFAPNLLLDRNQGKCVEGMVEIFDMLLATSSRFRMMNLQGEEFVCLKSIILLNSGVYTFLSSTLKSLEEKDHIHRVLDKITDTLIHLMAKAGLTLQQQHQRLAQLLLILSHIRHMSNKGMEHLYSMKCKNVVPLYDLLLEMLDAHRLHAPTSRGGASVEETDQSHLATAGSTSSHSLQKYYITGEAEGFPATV
Protocol: (§1) The dissociation constant (Kd) of the AptER-1, -2, -3, and -4 were measured using a nitrocellulose filter binding assay. A constant trace amount of [γ-³²P]-CTP incorporated RNA aptamer (˜0.1 nM) was titrated with increasing amounts of the target protein ranging from 5 to 150 nM. The binding activity at each concentration was determined as % binding, by calculating the radioactive signal of the RNA-protein complex retained on the filter as a percentage of the signal at the highest protein concentration (saturated) used. The assays were performed in triplicates for each aptamer. A binding curve was constructed using Sigma Plot 9.0.1, with average binding affinity (% binding) as a function of the protein concentration using a sigmoidal equation (Hill equation, 3 parameters). Apparent Kd was the protein concentration where half of the maximal binding activity was achieved, and were calculated from the data points by using Sigma Plot. […] The first 3 aptamers were isolated in in vitro selection I, and their affinity rank explains the relative abundance in the final selected library. More specifically, it is believed that AptER-1 dominated the final selected pool because it was the strongest binder. AptER-4 was the weakest binder, and would not have been easily identified in the selection I libraries.

[5] = target: T2, Human estrogen receptor beta (hERβ); test: filter; text prints hERα for this 26 nM value but context compares with hERβ (probable typo); conditions: tags: none stated; baculovirus/insect cells; EMD4 Biosciences 330657; label: 32P-CTP internal
Protocol: as §1, with “A” for “The dissociation constant (Kd) of the AptER-1, -2, -3, and -4 were measured using a nitrocellulose filter binding assay. A”, “libraries. […]” for “libraries.”

hERα DNA-binding domain [6] = target: T1, hERα DNA-binding domain; test: EMSA; also no binding in filter assay; conditions: tags: N-terminal His6; E. coli BL21(DE3); label: 32P-CTP internal
Protocol: No binding activity to RNase inhibitor (control) or DBD & RNase inhibitor was detected. The binding reactions were resolved on the same type of gel as above. […] End-radiolabeled ERE-50mer at 5 nM was mixed with 100× or 400× more concentrated unlabeled competitors ERE-50mer, AptER-1, -2 and -3 RNA or an early generation pool in hERα selection G1 before addition of hERα (40 nM). Only cold ERE-50mer disrupted radioactive ERE-hERα complex.
Class I aptamers bound with similar affinities to both subtypes of ER, which share the highest homology (96%) in the DBD. This raised the possibility that the target site of Class I aptamers was located within the DBD. Whether the aptamers bind to the DBD was tested in binding assays using a recombinant hERα-DBD. It was expressed as a His₆-tagged fusion protein in E. coli BL21 (DE3) and purified as described in the Materials and Methods. To verify its ERE-binding capability, a DNA EMSA was performed. DNA oligo ERE-50mer contains a GAAA tetra loop, which forces the oligo to form a hairpin. A copy of Xenopus laevis vitellogenin A2 ERE (5′-[…]-3′, SEQ ID NO: 73) was presented in the stem of a hairpin. […] However, in both EMSA (FIG. 11B) and filter-binding assay, no association was detected between AptER-1 and DBD. […]

[7] = target: T3, Human estrogen receptor alpha (hERα), …; test: FP; filter-binding assay (nitrocellulose), 12 mM HEPES pH 7.6, 150 mM NaCl, 10 mM MgCl2, 37 C; Hill coefficient about 1; conditions: tags: none stated; baculovirus/insect cells; Invitrogen P2187 or EMD4 Biosciences 330655; label: 32P-CTP internal
Protocol: as §1

| Binder | binding result (hERα DNA-binding domain [1]) | binding result [2] | binding result ([3]; predicted three-way junction with two long hairpins) | Kd [4] | Kd [5] | binding result (hERα DNA-binding domain [6]) | binding result [3] | Kd [7] |
| --- | --- | --- | --- | --- | --- | --- | --- | --- |
| B1 | no binding | no binding | no binding | ~45 nM | – | – | – | – |
| B2 | – | – | – | – | ~26 nM | no binding | no binding | ~16 nM |

Source: patent US20150031754, “APTAMER MODULATORS OF ESTROGEN RECEPTORS” (RESEARCH FOUNDATION OF STATE UNIVERSITY OF NEW YORK AT …, published 2015)
